Values belong to the molecule of their own block, whether it stands above or below them.
Legend:
[1] = target: T1, ErbB1 phosphorylation (pErbB1) in NCI-ADRr cells (Homo sapiens, UniProt P00533); test: ErbB1 phosphorylation dose response curves for ErbB ligands (ELISA); format: cell-based
T1 construct: endogenous in cells; host or cells: NCI-ADRr (ADRr) cells
Procedure: (§1) For stimulation of the cells, the cells are seeded in 100 μl complete media at 35,000 cells per well in 96 well tissue culture plates and incubated overnight in a humidified atmosphere of 5% CO2, 95% air and 37 degrees Celsius. Cells are then switched to serum free media: RPMI-1640 media (Gibco) supplemented with, 2 mM L-glutamine (Gibco) and units/mL Pen-Strep (Gibco). Starved cells are incubated in a humidified atmosphere of 5% CO2, 95% air and 37 degrees Celsius for 20-24 hours prior to stimulation.
(§2) Levels of protein phosphorylation in the stimulated cells are measured by ELISA. Capture antibodies against ErbB1 (R&D Systems, AF231), ErbB2 (R&D Systems, MAB1129), ErbB3 (R&D Systems, MAB3481) and AKT (Upstate, 05-591MG) are incubated in 384 well black flat-bottom polystyrene high-binding plates (Corning, Catalog #3708) overnight at room temperature. The ELISA plates are blocked with 2% bovine serum albumin (BSA) and phosphate buffered saline (PBS) for one hour then incubated with lysates diluted in 2% BSA, 0.1% Tween-20 and PBS for two hours at room temp. In between each incubation, the plates are washed three times with 0.05% Tween-20 in PBS. ELISAs for measuring phospho-ErbB1, -ErbB2 and -ErbB3 are incubated with phospho-tyrosine horseradish peroxidase (HRP) linked monoclonal antibody (R&D Systems, HAM 1676) for two hours. ELISAs measuring phospho-AKT are incubated with primary serine 473 specific anti-phospho AKT mouse monoclonal antibody (Cell Signaling Technologies, Catalog #5102) for 2 hours, then incubated with Streptavidin-HRP(R&D Systems, Catalog #DY998) for 30 minutes. All ELISAs are visualized with SuperSignal ELISA Pico Chemiluminescent Substrate (Pierce, Catalog #37069) and luminescent signal is measured using a luminometer.

[2] = tested on: ErbB2 phosphorylation (pErbB2) in NCI-ADRr cells; test: ErbB2 phosphorylation dose response curves for ErbB ligands (ELISA); format: cell-based; details: 5 min
Procedure: as §1, §2

[3] = tested on: AKT phosphorylation (pAKT) in NCI-ADRr cells; test: AKT phosphorylation dose response curves for ErbB ligands (ELISA); format: cell-based; details: 5 min
Procedure: as §1, §2

ErbB1 on NCI-ADRr cells = ErbB1 on NCI-ADRr cells (UniProt P00533); test: cell-based or functional assay
[4] = tested on: ErbB3 phosphorylation (pErbB3) in NCI-ADRr cells; test: ErbB3 phosphorylation dose response curves for ErbB ligands (ELISA); format: cell-based
Procedure: as §1, §2

ErbB3 on NCI-ADRr cells = ErbB3 on NCI-ADRr cells (UniProt P21860); test: cell-based or functional assay

Molecule: Epiregulin: epiregulin, ErbB ligand
pErbB1 % stimulation at 5 min relative to maximum [1]: 9.0%
pErbB2 % stimulation at 5 min relative to maximum [2]: 18.0%
pAKT % stimulation at 5 min relative to maximum [3]: 11.0%

Molecule: heparin-binding epidermal growth factor (from UniProt Q99075 63-148) (ligand)
EC50 [nM] of pErbB1 dose response, NCI-ADRr cells (ErbB1 on NCI-ADRr cells): 21 nM
EC50 [nM] of pErbB2 dose response, NCI-ADRr cells (ErbB1 on NCI-ADRr cells): 230 nM
pAKT, % stimulation at 5 min relative to maximum, NCI-ADRr cells (ErbB1 on NCI-ADRr cells): 20%
pErbB1, % stimulation at 5 min relative to maximum, NCI-ADRr cells (ErbB1 on NCI-ADRr cells): 87%
pErbB2, % stimulation at 5 min relative to maximum, NCI-ADRr cells (ErbB1 on NCI-ADRr cells): 94%
pErbB3, % stimulation at 5 min relative to maximum, NCI-ADRr cells (ErbB1 on NCI-ADRr cells): 32%

Molecule: transforming growth factor alpha (from UniProt P01135 40-89) (ligand)
EC50 [nM] of pErbB1 dose response, NCI-ADRr cells (ErbB1 on NCI-ADRr cells): 30 nM

B1: Epigen (ligand, UniProt Q6UW88 24-104, looked up)
chain: AVTVTPPITAQQGNWTVNKTEADNIEGPIALKFSHLCLEDHNSYCINGACAFHHELEKAICRCFTGYTGERCEHLTLTSYA
pAKT, % stimulation at 5 min relative to maximum, NCI-ADRr cells (ErbB1 on NCI-ADRr cells): 11%
pErbB1, % stimulation at 5 min relative to maximum, NCI-ADRr cells (ErbB1 on NCI-ADRr cells): 12%
pErbB2, % stimulation at 5 min relative to maximum, NCI-ADRr cells (ErbB1 on NCI-ADRr cells): 25%
pErbB3, % stimulation at 5 min relative to maximum, NCI-ADRr cells (ErbB1 on NCI-ADRr cells): 3%
pErbB1 % stimulation at 5 min relative to maximum [1]: 12.0%
pErbB2 % stimulation at 5 min relative to maximum [2]: 25.0%
pErbB3 % stimulation at 5 min relative to maximum [4]: 3.0%
pAKT % stimulation at 5 min relative to maximum [3]: 11.0%

B2: heregulin HRG1-β (ligand, UniProt Q02297-6 177-241, looked up)
chain: SHLVKCAEKEKTFCVNGGECFMVKDLSNPSRYLCKCPNEFTGDRCQNYVMASFYKHLGIEFMEAE
EC50 [nM] of pAKT dose response, NCI-ADRr cells (ErbB3 on NCI-ADRr cells): 1.9 nM
EC50 [nM] of pErbB2 dose response, NCI-ADRr cells (ErbB3 on NCI-ADRr cells): 7 nM
EC50 [nM] of pErbB3 dose response, NCI-ADRr cells (ErbB3 on NCI-ADRr cells): 9.9 nM
pAKT, % stimulation at 5 min relative to maximum, NCI-ADRr cells (ErbB3 on NCI-ADRr cells): 100%
pErbB1, % stimulation at 5 min relative to maximum, NCI-ADRr cells (ErbB3 on NCI-ADRr cells): 0%
pErbB2, % stimulation at 5 min relative to maximum, NCI-ADRr cells (ErbB3 on NCI-ADRr cells): 43%
pErbB3, % stimulation at 5 min relative to maximum, NCI-ADRr cells (ErbB3 on NCI-ADRr cells): 100%

Second part, led by results:

EC50 [1]: 37 nM
pErbB1 % stimulation at 5 min relative to maximum [1]: 95.0%
EC50 [4]: 380 nM
Molecule: AR: amphiregulin, ErbB1 binding ligand
pErbB2 % stimulation at 5 min relative to maximum [2]: 54.0%
pErbB3 % stimulation at 5 min relative to maximum [4]: 17.0%
pAKT % stimulation at 5 min relative to maximum [3]: 28.0%

EC50 [nM] of pErbB1 dose response, NCI-ADRr cells (ErbB1 on NCI-ADRr cells): 37 nM
EC50 [nM] of pErbB3 dose response, NCI-ADRr cells (ErbB1 on NCI-ADRr cells): 380 nM
pAKT, % stimulation at 5 min relative to maximum, NCI-ADRr cells (ErbB1 on NCI-ADRr cells): 28%
pErbB1, % stimulation at 5 min relative to maximum, NCI-ADRr cells (ErbB1 on NCI-ADRr cells): 95%
pErbB2, % stimulation at 5 min relative to maximum, NCI-ADRr cells (ErbB1 on NCI-ADRr cells): 54%
pErbB3, % stimulation at 5 min relative to maximum, NCI-ADRr cells (ErbB1 on NCI-ADRr cells): 17%
B3: amphiregulin (ligand, UniProt P15514 101-198, looked up)
chain: SVRVEQVVKPPQNKTESENTSDKPKRKKKGGKNGKNRRNRKKKNPCNAEFQNFCIHGECKYIEHLEAVTCKCQQEYFGERCGEKSMKTHSMIDSSLSK

From US20110027291A1, “METHODS, SYSTEMS AND PRODUCTS FOR PREDICTING RESPONSE OF TUMOR CELLS TO A THERAPEUTIC AGENT AND TREATING A PATIENT ACCORDING TO THE PREDICTED RESPONSE” (MERRIMACK PHARMACEUTICALS, INC., priority 2008, published 2011)
